Experimental data reported in publication PMC6684648.

Biological target: human IGF2R extra-cellular domains 1-15 I1572A fused at the C-terminal to rat CD4 (domains 3 + 4), biotin acceptor domain and histidine tag (human) (UniProt P11717)
Test: SPR; BIAcore T200; about 1800 RU of biotinylated CD4-IGF2R fusion protein immobilised on a CM5 chip loaded with streptavidin; IGF2 256 to 0.125 nM injected for 200 s, 25 °C, 40 μl/min, HBS-EP; 1:1 binding model and steady state analysis

human IGF2R extra-cellular domains 1-15 I1572A fused at the C-terminal to rat CD4 (domains 3 + 4), biotin acceptor domain and histidine tag (human), sequence (P11717 41-2304 I1572A): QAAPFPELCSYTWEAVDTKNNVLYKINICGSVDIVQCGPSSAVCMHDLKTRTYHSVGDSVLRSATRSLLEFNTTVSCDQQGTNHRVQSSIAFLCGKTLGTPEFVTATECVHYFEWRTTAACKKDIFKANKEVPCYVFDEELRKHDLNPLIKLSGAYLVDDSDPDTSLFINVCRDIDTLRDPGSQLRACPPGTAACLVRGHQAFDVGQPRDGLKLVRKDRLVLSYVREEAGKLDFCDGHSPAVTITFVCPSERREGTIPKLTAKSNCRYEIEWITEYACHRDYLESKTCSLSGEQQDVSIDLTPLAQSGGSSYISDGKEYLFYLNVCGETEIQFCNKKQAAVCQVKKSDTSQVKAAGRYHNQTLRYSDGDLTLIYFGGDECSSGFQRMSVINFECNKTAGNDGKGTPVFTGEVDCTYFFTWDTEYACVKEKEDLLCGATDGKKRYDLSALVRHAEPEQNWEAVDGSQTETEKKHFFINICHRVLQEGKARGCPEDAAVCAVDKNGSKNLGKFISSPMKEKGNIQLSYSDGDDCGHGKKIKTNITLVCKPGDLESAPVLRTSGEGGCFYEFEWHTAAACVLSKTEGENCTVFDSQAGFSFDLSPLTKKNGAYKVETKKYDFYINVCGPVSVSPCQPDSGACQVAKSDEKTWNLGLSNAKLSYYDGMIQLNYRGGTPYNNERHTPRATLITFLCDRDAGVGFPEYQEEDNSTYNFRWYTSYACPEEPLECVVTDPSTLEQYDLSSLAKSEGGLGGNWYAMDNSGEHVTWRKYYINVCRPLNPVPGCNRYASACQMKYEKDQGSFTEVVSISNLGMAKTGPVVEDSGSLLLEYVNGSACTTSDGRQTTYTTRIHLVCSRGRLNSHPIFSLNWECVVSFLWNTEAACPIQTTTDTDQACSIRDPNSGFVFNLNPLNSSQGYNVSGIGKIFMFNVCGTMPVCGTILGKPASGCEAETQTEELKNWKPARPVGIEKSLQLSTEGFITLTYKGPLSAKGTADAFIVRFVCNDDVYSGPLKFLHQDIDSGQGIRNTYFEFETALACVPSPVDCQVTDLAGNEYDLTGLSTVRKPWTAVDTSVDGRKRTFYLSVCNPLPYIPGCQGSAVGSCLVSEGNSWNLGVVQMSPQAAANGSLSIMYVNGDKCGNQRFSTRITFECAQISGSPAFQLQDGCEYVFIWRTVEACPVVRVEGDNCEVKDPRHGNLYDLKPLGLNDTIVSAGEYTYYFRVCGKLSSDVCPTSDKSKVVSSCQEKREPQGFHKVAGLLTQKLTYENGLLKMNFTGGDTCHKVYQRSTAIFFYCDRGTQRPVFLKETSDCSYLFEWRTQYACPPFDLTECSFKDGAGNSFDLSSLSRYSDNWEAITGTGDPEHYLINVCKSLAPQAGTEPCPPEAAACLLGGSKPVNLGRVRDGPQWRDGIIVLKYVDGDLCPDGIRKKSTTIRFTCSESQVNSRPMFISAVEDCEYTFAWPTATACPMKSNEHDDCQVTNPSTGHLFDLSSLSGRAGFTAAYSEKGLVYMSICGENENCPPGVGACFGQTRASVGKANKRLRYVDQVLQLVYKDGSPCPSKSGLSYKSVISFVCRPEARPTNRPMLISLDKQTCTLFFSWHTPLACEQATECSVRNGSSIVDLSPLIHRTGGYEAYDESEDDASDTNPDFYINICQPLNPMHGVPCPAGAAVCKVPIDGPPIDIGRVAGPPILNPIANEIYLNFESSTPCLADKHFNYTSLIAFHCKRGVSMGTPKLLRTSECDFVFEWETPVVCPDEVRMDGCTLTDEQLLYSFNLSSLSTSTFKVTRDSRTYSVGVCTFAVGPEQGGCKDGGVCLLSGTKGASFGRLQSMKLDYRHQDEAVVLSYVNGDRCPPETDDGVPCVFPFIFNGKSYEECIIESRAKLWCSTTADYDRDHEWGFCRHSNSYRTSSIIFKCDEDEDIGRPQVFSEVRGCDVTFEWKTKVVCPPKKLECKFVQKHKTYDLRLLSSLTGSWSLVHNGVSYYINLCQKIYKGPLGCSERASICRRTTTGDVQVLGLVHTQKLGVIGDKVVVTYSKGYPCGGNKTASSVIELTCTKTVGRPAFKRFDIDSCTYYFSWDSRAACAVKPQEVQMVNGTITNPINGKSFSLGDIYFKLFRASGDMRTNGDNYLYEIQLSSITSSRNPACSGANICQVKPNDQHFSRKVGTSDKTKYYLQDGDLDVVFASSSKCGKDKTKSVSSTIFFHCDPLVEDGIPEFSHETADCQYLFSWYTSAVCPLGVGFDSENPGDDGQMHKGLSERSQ

Work on human IGF2 (ligand) yielded a fold reduction of IGF2 binding against wild type of 100 fold.
